From PMC5499601 (Nucleic Acids Research, 2017)
Read-outs that look alike come from different tables or passages of the source.

Legend:
Test in all cases: EMSA
BsSpo0J R39A [1] = biological target: T1, BsSpo0J R39A (UniProt P26497 1-282, R39A)
T1 sequence: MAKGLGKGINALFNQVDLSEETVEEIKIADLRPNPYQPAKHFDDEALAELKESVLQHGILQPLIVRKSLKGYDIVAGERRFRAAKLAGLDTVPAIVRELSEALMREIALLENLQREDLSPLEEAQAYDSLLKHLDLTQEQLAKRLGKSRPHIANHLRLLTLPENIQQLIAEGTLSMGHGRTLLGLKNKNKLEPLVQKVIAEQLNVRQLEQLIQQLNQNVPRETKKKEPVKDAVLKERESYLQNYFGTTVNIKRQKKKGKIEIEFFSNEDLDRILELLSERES

BsSpo0J V75A = biological target: T2, BsSpo0J V75A (UniProt P26497 1-282, V75A)
T2 sequence: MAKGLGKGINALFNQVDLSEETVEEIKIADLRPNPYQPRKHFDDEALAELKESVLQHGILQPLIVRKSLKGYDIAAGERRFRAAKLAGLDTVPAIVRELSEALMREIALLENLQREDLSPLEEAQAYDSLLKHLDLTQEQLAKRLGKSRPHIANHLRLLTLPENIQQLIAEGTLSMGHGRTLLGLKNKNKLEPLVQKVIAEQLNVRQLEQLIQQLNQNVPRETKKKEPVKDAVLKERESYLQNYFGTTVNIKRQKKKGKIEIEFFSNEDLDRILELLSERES

BsSpo0J R39A [2] = biological target: T1, BsSpo0J R39A; remark: listed apart in the source
BsSpo0J F81A = biological target: T3, BsSpo0J F81A (UniProt P26497 1-282, F81A)
T3 sequence: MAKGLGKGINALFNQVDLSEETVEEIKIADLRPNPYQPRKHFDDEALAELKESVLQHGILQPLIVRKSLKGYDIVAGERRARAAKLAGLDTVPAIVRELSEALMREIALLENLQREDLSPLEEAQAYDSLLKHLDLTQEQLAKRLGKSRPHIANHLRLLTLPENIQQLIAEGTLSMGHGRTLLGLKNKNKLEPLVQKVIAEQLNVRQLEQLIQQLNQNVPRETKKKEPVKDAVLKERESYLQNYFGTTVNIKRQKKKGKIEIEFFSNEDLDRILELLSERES

BsSpo0J N112S = biological target: T4, BsSpo0J N112S (UniProt P26497 1-282, N112S)
T4 sequence: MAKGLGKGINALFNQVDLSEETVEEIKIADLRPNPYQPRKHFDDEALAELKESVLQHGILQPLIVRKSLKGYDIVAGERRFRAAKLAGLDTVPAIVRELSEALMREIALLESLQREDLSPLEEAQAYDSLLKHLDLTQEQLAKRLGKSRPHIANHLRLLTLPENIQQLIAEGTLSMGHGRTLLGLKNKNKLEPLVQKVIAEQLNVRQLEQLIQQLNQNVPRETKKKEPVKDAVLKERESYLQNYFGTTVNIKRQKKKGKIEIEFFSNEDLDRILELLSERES

BsSpo0J Q61R = biological target: T5, BsSpo0J Q61R (UniProt P26497 1-282, Q61R)
T5 sequence: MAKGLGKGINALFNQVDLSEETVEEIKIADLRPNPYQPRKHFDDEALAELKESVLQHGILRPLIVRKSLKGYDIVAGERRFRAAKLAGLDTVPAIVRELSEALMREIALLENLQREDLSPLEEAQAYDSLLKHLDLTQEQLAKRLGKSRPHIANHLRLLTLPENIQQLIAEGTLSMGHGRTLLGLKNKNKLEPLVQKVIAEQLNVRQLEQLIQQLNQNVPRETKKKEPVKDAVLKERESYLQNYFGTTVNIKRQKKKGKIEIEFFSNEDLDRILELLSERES

BsSpo0J R80A = biological target: T6, BsSpo0J R80A (UniProt P26497 1-282, R80A)
T6 sequence: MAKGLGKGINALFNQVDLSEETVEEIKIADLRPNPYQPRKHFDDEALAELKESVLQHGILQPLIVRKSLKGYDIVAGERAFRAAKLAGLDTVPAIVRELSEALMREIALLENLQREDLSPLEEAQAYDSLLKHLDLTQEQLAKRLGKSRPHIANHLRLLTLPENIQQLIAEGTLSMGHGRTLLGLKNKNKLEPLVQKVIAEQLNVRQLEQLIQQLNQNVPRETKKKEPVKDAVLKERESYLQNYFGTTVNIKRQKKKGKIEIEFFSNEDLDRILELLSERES

BsSpo0J Q61A = biological target: T7, BsSpo0J Q61A (UniProt P26497 1-282, Q61A)
T7 sequence: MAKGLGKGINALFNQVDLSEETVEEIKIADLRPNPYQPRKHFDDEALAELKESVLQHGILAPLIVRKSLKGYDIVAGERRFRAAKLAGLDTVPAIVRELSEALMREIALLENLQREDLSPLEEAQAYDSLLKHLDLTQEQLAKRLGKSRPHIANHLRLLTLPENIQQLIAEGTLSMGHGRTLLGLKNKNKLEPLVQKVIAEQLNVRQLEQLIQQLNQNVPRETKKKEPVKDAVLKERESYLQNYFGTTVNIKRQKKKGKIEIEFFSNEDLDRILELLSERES

BsSpo0J H57E = biological target: T8, BsSpo0J H57E (UniProt P26497 1-282, H57E)
T8 sequence: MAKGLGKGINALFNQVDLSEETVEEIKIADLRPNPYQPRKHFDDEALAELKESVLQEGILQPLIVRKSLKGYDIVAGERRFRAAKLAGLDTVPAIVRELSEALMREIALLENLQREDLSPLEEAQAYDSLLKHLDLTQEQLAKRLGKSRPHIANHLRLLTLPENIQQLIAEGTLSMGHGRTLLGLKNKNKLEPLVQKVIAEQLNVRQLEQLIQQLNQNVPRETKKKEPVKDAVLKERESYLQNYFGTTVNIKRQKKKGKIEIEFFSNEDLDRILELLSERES

BsSpo0J Q140R = biological target: T9, BsSpo0J Q140R (UniProt P26497 1-282, Q140R)
T9 sequence: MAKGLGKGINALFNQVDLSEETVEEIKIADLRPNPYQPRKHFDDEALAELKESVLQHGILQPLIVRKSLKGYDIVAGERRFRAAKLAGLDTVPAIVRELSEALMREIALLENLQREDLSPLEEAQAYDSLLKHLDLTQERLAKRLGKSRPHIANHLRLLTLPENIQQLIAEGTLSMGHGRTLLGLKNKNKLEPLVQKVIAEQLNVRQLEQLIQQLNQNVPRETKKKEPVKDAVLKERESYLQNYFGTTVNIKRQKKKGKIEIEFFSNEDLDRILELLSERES

Measured: binding result

B1: 39-bp parS (dsDNA)
DNA 1: CAGTTGAATCAGAATGTTCCACGTGAAACAAAGAAAAAA
DNA 2: TTTTTTCTTTGTTTCACGTGGAACATTCTGATTCAACTG
binds: BsSpo0J R39A [1] | BsSpo0J V75A

B2: 24-bp parS (dsDNA)
DNA 1: AGAATGTTCCACGTGAAACAAAGA
DNA 2: TCTTTGTTTCACGTGGAACATTCT
not listed: BsSpo0J R39A [1] | BsSpo0J V75A
binds: all other assays above
